From patent US20040166099A1 (TOLERRX, published 2004)

Molecular target: protein kinase C theta (human, UniProt Q04759 1-706)
Test: cell-based or functional assay

Chain of protein kinase C theta (Q04759 whole entry): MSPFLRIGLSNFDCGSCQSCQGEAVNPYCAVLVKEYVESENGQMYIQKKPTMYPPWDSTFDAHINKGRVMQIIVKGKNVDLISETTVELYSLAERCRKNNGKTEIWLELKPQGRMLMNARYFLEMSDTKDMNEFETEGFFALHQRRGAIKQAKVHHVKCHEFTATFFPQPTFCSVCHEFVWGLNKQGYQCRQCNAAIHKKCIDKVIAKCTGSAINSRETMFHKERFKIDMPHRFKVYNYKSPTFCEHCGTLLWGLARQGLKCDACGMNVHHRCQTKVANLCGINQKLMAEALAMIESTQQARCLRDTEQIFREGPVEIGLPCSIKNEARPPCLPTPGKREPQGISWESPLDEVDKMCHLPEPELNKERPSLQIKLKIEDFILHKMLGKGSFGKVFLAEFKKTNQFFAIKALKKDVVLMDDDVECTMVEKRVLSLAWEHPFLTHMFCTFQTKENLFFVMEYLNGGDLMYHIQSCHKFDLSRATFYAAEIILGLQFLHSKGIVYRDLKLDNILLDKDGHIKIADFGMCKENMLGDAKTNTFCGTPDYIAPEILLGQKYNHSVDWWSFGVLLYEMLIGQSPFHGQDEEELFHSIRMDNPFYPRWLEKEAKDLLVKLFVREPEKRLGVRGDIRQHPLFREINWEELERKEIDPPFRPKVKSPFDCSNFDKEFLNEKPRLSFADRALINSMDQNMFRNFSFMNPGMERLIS

B1: antennapedia-PKC theta peptide (peptide)
peptide: RQIKIWFQNRRMKWKKMDQNMFRNFSFNMP
  proliferation (3H-thymidine incorporation) of Th1 and Th2 cells stimulated with CD3 and CD28, relative to no inhibitor: 16 % of control levels
